From the supplement of paper PMC7877785
± gives the uncertainty stated by the source.

Assay: self-splicing fitness, log relative to wild type (ln ratio); higher = more splicing; Tetrahymena group I intron in knt gene, E. coli kanamycin selection, DiMSum; sequences stand for … in CUCUCU…GGAGGGAAAAGUUAUCAGGCAUGCACCUGGUAGCUAGUCUUUAAACCAAUAGAUUGCAUCGGUUUAAAAGGCAAGACCGUCAAAUUGCGGGAAAGGGGUCAACAGCCGUUCAGUACCAAGUCUCAGGGGAAACUUUGAGAUGGCCUUGCAAAGGGUAUGGUAAUAAGCUGACGGACAUGGUCCUAACCACGCAGCCAAGUCCUAAGUCAACAGAUCUUCUGUUGAUAUGGAUGCAGUUCACAGACUAAAUGUCGGUCGGGGAAGAUGUAUUCUUCUCAUAAGAUAUAGUCGGACCUCUCCUUAAUGGGAGCUAGCGGAUGAAGUGAUGCAACACUGGAGCCGCUGGGAACUAAUUUGUAUGCGAAAGUAUAUUGAUUAGUUUUGGAGUACUCGUGGUCG
How it was run: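 Pooled colonies went to amplicon sequencing on an Illumina HiSeq 2500 after six replicate transformations. The plates were LB agar with 100 μg/mL carbenicillin, 50 μM IPTG and 0.2% rhamnose, with or without 25 μg/mL kanamycin, incubated overnight at 37°C or 30°C. The E. coli BL21(DE3) library had all eight P1ex-region intron nucleotides randomised, the intron placed in the knt kanamycin-resistance gene on pET-22b(+). DiMSum fitness is the error-weighted combination of replicate fold changes, kanamycin against none, normalised to wild type.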

Row | Sequence | self-splicing fitness (ln) (30 °C) | self-splicing fitness (ln) (37 °C)
1 | CAACAGCAAUAUUACGACGG | -0.0366 ± 0.058 | 0.186 ± 0.085
2 | AACCAGCAAUAUUACGGUAC | -2.82 ± 0.12 | -1.1 ± 0.088
3 | UCAUAGCAAUAUUACGUGAG | -1.1 ± 0.081 | -0.39 ± 0.11
4 | ACACAGCAAUAUUACGUGUU | -3.16 ± 0.073 | -3.62 ± 0.16
5 | UUUGAGCAAUAUUACGCAUU | -2.65 ± 0.27 | -1.09 ± 0.2
6 | AUUGAGCAAUAUUACGGUAC |  | -1.72 ± 0.31
7 | UUUAAGCAAUAUUACGGCAU | -1.59 ± 0.11 | -0.239 ± 0.12
8 | GUAGAGCAAUAUUACGCACU | -1.24 ± 0.25 | 0.332 ± 0.23
9 | CCCAAGCAAUAUUACGUCAC | -3.87 ± 0.2 | -2.82 ± 0.15
10 | UGGUAGCAAUAUUACGGCUU | 0.166 ± 0.18 | -0.0657 ± 0.2
11 | UCAGAGCAAUAUUACGCUUG | -2.27 ± 0.14 | -0.868 ± 0.12
12 | ACCGAGCAAUAUUACGGAUA | -2.8 ± 0.35 | -2.33 ± 0.27
13 | AAUCAGCAAUAUUACGCCAG | -0.398 ± 0.16 | -1.58 ± 0.17
14 | CAACAGCAAUAUUACGCAUU | -3.14 ± 0.091 | -1.79 ± 0.089
15 | GAAUAGCAAUAUUACGUUGU | -3.27 ± 0.14 | -2.38 ± 0.16
16 | AGACAGCAAUAUUACGUGCA | -0.683 ± 0.069 | -0.00672 ± 0.079
17 | UCAGAGCAAUAUUACGCAGG |  | 0.137 ± 0.42

Row | Sequence | self-splicing fitness (ln) (30 °C) | self-splicing fitness (ln) (37 °C)
18 | ACGGAGCAAUAUUACGGUCA | -3.14 ± 0.3 | -1.35 ± 0.18
19 | GAUAAGCAAUAUUACGUGAG | -2.14 ± 0.096 | -0.113 ± 0.099
20 | AGACAGCAAUAUUACGUGAU | -2.36 ± 0.075 | -0.742 ± 0.087
21 | AACCAGCAAUAUUACGUUGG | -3.14 ± 0.12 | -2.42 ± 0.13
22 | AUUAAGCAAUAUUACGCAUU | -2.35 ± 0.14 | -0.664 ± 0.13
23 | AUAUAGCAAUAUUACGGCGG | -1.04 ± 0.17 | -0.534 ± 0.26
24 | ACCUAGCAAUAUUACGAGGG | -3.45 ± 0.17 | -1.4 ± 0.12
25 | UGGAAGCAAUAUUACGAUAG | -2.51 ± 0.2 | -0.419 ± 0.17
26 | GCCCAGCAAUAUUACGCAUU | -0.902 ± 0.05 | -0.248 ± 0.063
27 | UUACAGCAAUAUUACGGCGU | -2.6 ± 0.14 | -2.57 ± 0.21
28 | CCGAAGCAAUAUUACGCAGA | -2.91 ± 0.38 | -2.57 ± 0.33
29 | CACUAGCAAUAUUACGUGUA | -2 ± 0.11 | -1.47 ± 0.12
30 | UCGCAGCAAUAUUACGUACU |  | -1.86 ± 0.32
31 | GAAAAGCAAUAUUACGUAGA | -0.772 ± 0.076 | -1.77 ± 0.13
32 | CCCGAGCAAUAUUACGCUGG | -3.13 ± 0.16 | -2.68 ± 0.26
33 | GGUAAGCAAUAUUACGAGUA | -2.4 ± 0.21 | -1.03 ± 0.14
34 | UUGUAGCAAUAUUACGGUGC | -2.37 ± 0.45 | -2.07 ± 0.34
